The NTF2 design screens of Basanta et al. (2020)

Test: protease stability score; higher = more stable; yeast display proteolysis, trypsin and chymotrypsin;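 further: relative to predicted unfolded state with 0 unfolded-like and 1 meaning tenfold more protease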

“HETEQRLEHHIKLWFKAFMTGDEELLKFLADPNVRVDDDVNGVRFLNIGMEKLAEWLRKWLRRVPNVKFDLEDVKIFENRTHIDSRLDIDGKEIELHIHLILINGRIQEIRFSVK” showed a protease stability score of 1.49.
Work on “HETKHLVDKFIELFKHNLETGDWDRLLELADPRTRVHVGDKTLIGMHEFRELHLRLIEKHGIKLNYYVHEVHVQGDKAHVDNEREEDYNGRVVSFRIRMHVEKFDGRWYLTRIEFN” yielded a protease stability score of 1.33.
“HEVERIVEESDRHLLNSMLTGNEDELWRLLDPNARLDINGVQSIGRDEAYRVFHELLNHLRLREVDVHEMDVQGDKAHLTFKFNGDFNGKRDYLDFQVNSLKINGRWFLHSSSLI” gave a protease stability score of 0.529.
“HEWERLHHEAMEHFLRLQETGNEKTLQELADPDARLHYNGKDYHGRESMLKFWIELGVDHIHLHDFRIQGDKMEIHMDDHQGDKRLHTIIIHRKVNGQWHLQSEKIH” showed a protease stability score of 0.548.
For “HEYEEEVTKAIEVLLHLLMTGDFDQMLHLADPNYRVDINGQEYIGREWFEVIRDKFKNVKIKDMHIDHVIFIGDKVIIHSREHRQQGDKERTFTVVLYSRKINGQWVHTSVKFS”, the protease stability score was 1.59.
Sequence “HEYEEWSEIAMRLWILAERTGDERHIAHLLDPHVRYVFNGVEVIGMELITELVKRRWEQWRVHVEIEDRKFQGNFSKIEGHLRLHVGDKTEERRVEYRMDIVDGRIREISVIIE” has a protease stability score of 1.37.
“HHDEELSEHMAHNWLEALLTGDEDMLRELADPHVRYRFNGRQEIGWEHLLRFVNEIRIHELEPRHIQIDLVNGQVHVHIEGTIDGRIGDKDDRRRTTIVLNIRKINGKWILESISMEVE” showed a protease stability score of 1.68.
Work on “HKEHRDAHELLERWLRSSVTGDEDTLSELLDPNVKIEIGNKHVHGREEVSRHFSERAHRIDHVRLHVDDLYIQGEKVHVDLTLEINVGDWRQTIKVEYVVLKVNGRWRIHTIHER” yielded a protease stability score of 0.674.
With “HKLDEITKDMLEIFEKHSQTGDFQSLAKNVDPHARVDWDGRQFHGREDVQEVMIRLGVDHIEFKRIDIQGEWVHMDGQVYVNGRTTRTEFVSLKVNGRWYIHELRVR” the protease stability score was 0.875.
“HQDDDELKHFLELFIEQHETGDEHRLRKMADPRTRVEINGQEIHGMDQLVRHWLEFRKRMGVDHTHVILEHFHFQGDKVSARLRLIFIVGDKTFETDMNVIVVKVDGKWLIHEVSTR” showed a protease stability score of 1.22.
In the case of “HQEDRLVFALAKDWIDNLETGDEDKMLQRADPRRQLIIDGRTFHGWENTYENMKQIRIEHLEIRDMTVVDGRIHINTHSILIINGRRFETETSIRLVVVNGVIQDVDININ”, the protease stability score is reported as 0.081.
For “HRDEELSEEILRLILEILRTGDEDELRRLIDPHVRVSIGDKEKHGREWYLELVNVAGIKYIELKRIHVIGDKAHFETYVHVDGRDISLQFIILKINGKWFITSIRIETR”, the protease stability score was 1.4.
“HRVETEAHHMMKLLEHWLQTGDEEMWKTYADPDVRIDVDGKTLHGRDNFEHVLRMYGIKHRHIRDSHYHFIGDYLHYNLDVEVHFNGKDLKTHFTFQIRKVDGRWELERVHIRVH” showed a protease stability score of 0.941.
With “HSDEEKSRRATKWFIKIFHTGDEDRFHELADPNTRVIIGDKDFIGREKAVDAIHRIWEHLGIDVYDVEDIRIINGVVEVDTSFHINGRTIKTTTRIEKVNGQWVVDEVHFK” the protease stability score was 1.23.
Work on “HSLEKDAHEAFELFADTVRTGDEKLMQHLIDPNVRFDYNGVDLHGWKDVSRLMIELRIEDVRLTHVHVIGNKVHLDTRIHSHVNGRRIDTEMHVDIEKVNGRWVIRRIEHR” yielded a protease stability score of 1.47.
In the case of “IEQKEAWDEVYRIFVEAVRTGDWKSFERLLDPHTRIHFENREFHGREALEHDREKYKNMKLEHIEIKDQRVQGDKVIQFSHVVGNIDGRRLRFDIEIQFSKVDGVWTIELVIVR”, the protease stability score is reported as 1.52.
“KDTKRALDELSELELHADETGDWRVKHELLDPHTRIVIGDKTIHGREDMLTLMKKLQEHWRLKTIEIHHTEVVDGRIDADTILVGIVDGVERELRVRLIILKINGRWIYTSIKFD” gave a protease stability score of 1.14.
Work on “KEDEELSSRFMLLMWHLMVTGNWKILEELADPNVRFIDEHHTLHGREEFVRTFKDWFDEIKNMKIHVRDSTVQGEKSNIHGELNFNGKRVDYTFIILFFNGRLHQIELRYH” yielded a protease stability score of -0.069.
Sequence “KEDEEYFREVTKNLLELIETGDFDMLTELLDPHMLLDVNGRTFHGWELAVEWYRQHVKKFGIDNIKVTLKHIHIQGNKIHLDVEVEIGDKTERREFVLTKINGRWRFDSVVVR” has a protease stability score of 2.19.
Work on “KEDSEIAEDIIRLLNHASSTGDEETFTHLADPNVRIKIGDKESHGREEWSRTLTELRVEFKDMKIRDVDIQGEYVFVEGELRVEITVNGRTIEIHYESHFIMEKVNGRWHVHSVMML” yielded a protease stability score of 0.222.
Work on “KEEEDIVRHVVEKFIKNLLTGDFHSLMHMADPNVLVNFNGKENIGRELAVKTIERWWKELGVKHFEHFDLHDITIFDGKASLDTRVHGEINGKVHDFKTRIIIQKINGRWTVHSVEFE” yielded a protease stability score of 1.22.
“KEEEEDLKKATEDMMHLLSTGDWDTIYRLADPNTRIEINGREEVGMDLYVDKSMEEFRRLGIDKIHIHLHSVTNVNGKIYIDTRYEFNGVKIRMHIVIEKINGRWLLRTLSVK” gave a protease stability score of 1.52.
“KEEEEEARQAWDLLHNIMKTGDEHQLMSLVDPNYLNIAEGREFHGREVFYHYMHELRVKWEHMHLKDYRVYNGRIRTEEHLVVHYEYGDKHDSLRTDVHLKDVKINGRWRVRHLHII” showed a protease stability score of 0.78.
For “KEEEEFAKHILHMLRYLWETGDEEEFERMADPNARLIQGDKHFHGREEITKSVKELRVRHFEEKHIHYQGEKSLIIGHVDGEINGQRHEIDVIIRLEVVNGKLKRIRIEYR”, the protease stability score was 0.239.
For “KEEEEKLERLAELVIELFLTGDWKTLHSLLDPHYRSEIDGRTVHGRESHQTLLEEILRHLRIRRVHIEEYRIIDGVAWIDSRITLEINGRTVDTHMHIHLEFFNGRLHSIRVEIH”, the protease stability score was 2.47.
“KEEEELVKKMLDLLVEAWETGDWKLLDHLLDPNVKLEVDGVLHIGREEAVRVMLEFHKRVDHVEVRDRDFRIQGEKVRHEVELRLHQGEFHVITRIEIEVTKVNGRWQMKHIRIE” showed a protease stability score of 2.56.
“KEEETHAREVSEANEHLLETGDWRRLSHLLDPNAKITINGRHFHGREFFTELQKRHEDMLGIKHRHIEDSTVVGDKVIIHTYYHVDGKTLDIEIIIVVINGRHERVEWRFK” showed a protease stability score of 0.782.
“KEEEWLAREWLRLWFEAVMTGDEHRLNHMLDPHVRTIVGDYEDVGRERSSELFLEIRLDHMELTSLDVQGDYAHLEIRVDGTIDGKRIETEMRVTLNIVDGRFRTVEHRIS” showed a protease stability score of 0.755.
Work on “KEHEEILHHLAELFFENLLTGDWRLLTELMDPSARVHIGEWRSHGREHASRVMLEEFRQLRVRDVKLTDLKVIDGRMEIDTRMRIEVDGREHIHTIHIRIYIYNGRMDEIHLEVR” yielded a protease stability score of 0.125.
In the case of “KEHEKFVEDFARLLINIWTTGDEDLFNELADPHVRVNFNGVEHHGRENVIRYIERVLREIRIDHVQTRDWTVIDGVMHIEGHIHIHFDGRQRTHDVIFHIIIWNGKMKNVIVSFR”, the protease stability score is reported as 1.67.
Work on “KEHNDALELMYHWLIHLWKTGDERDIYELFDPNVRVDVNGRELHGMELVSHIELREMKRLGFKVIHIELTSVRYIGDKIEIDTIFHLHVGEYTERREHHILSYKVDGRWFVKESEVN” yielded a protease stability score of 1.18.
“KEKEEIARMMLKELIKTIRTGDPEEWHKLFDPHVLIVIDGREIHGMEEHTRLLRELGIDRIELHTQHERHVSVQGDKVHLDIDVDGMFDGQKRRFHMHIDALKVNGQWVIQYIEIR” gave a protease stability score of 1.96.
With “KELDEKVDTAIRIFHDVMLTGDEEKLIKLMDPNTRIRYNGRELHGWESHIKLREEELHELGVERVVHIFHNREIRAYDGVADIKGELEIRFNGRTVRHEFRIKFEKVNGRWVVREIEIH” the protease stability score was 1.31.
“KELEEHELRLAKDMSKVIETGDEERLRRLADPHVKVHINGKTRHGREWMSHLLNLMLTELRVRHLHIKDVFEVNGVAHSETELDGEVNGREIELHTEIILVVVNGKIQRLEIRIE” gave a protease stability score of 1.06.
With “KELERDSREATHTFLRDIKTGDFESLHRLADPTTRMHIGDKEFHGWELLIHVIAEFLRKVPNMRTTLRDERVQGEKVEVRVDIHYNGQDRHIELEIHKVNGKWWIKVMEFE” the protease stability score was 0.88.
Sequence “KEQDHLIKNVLERLFRAFHTGNEEELEKLIDPHAMIIIGDKHFHGREEVLHTLVNLVNEIRFRDMELKDSRLFDGRVNIDLDEHIRQGDKHHLYEVHLILYKFDGRWFIRKFEIR” has a protease stability score of 1.46.
Work on “KEREELLKTAADLMYHIWHTGDFEKLFKNVDPHVKINVGDKTYVGREQMHKIFKELKERLGFDVSSLEHRHLDMQGDFIFNELHVRLHQGDFEIQSWIHVIIYKVNGKWVVHEIKLHWD” yielded a protease stability score of 1.6.
In the case of “KESEEDARKFWEKMVEDNRTGDWDSFEKLVDPHVKMLFNGREYHGRDELLDLFRHIRFKDHEIHDMKVIGNKVRMDTRVHLNVNGREISVDTHLVVEKINGRWVLHSVLFH”, the protease stability score is reported as 1.62.
With “KHEEDEWKRMIDIVLHMLKTGNFELLERLADPHARSHIDGVRIHGREKFVEILFEVWHFYKNLTISINHIDVFNGVIVIHGRLDINGRQVEVHIVVTKINGKWFLESHSEIFH” the protease stability score was 0.572.
Sequence “LEDEEMLEEVDKRLVHAFLTGDFNTIERMLDPDTKVRINGRESIGRENVAKVLHEERRHMRLDIIEIRRIRLVGEFIHSDTRLDININGRRIKFTFRIIVLKINGQWIVESLEID” has a protease stability score of 2.06.
“LEEEEEAKTMIEHHFDNFRTGDEDLIHKLADPHVRVLYNGKILHGREKLVEMIHKLVEKMGVDHLEYRHRDMKIWDGQVEVHGERIIRQGDKTYRFDVILFVLKVDGRWVIKEVRVQ” gave a protease stability score of 1.47.
Work on “LEEEEETKEMNDKMRHVMETGDEDSFRKLADPHVRVDINGREFHGMDNAAEIMSHLRIHKFHVHDTRNINGKVQVESRLTRIIDGKKQHVRTEWIIVKIDGQWIFREWIVK” yielded a protease stability score of 0.58.
For “LEEEEIARELLKRILDMLFTGDEEVLSELLDPNVRVDFNGVEIHGREHVREWMHHLRFRHLHLRDFRVQGDKLHLDTETRGEIDGQEVRIETRLIARKVDGRWILKSREFV”, the protease stability score was 1.53.
For “LEEKDEVHHIVDRLFKVLMTGDFEILRHLLDPDDRLKIDINGRQIDLHGREEVVHWVIHELRELRIELRVKRVHHTENHYVADTRLHIRQGDKEFVHETEWRILIIDGKNKEWRIIVH”, the protease stability score was 1.38.
“LEFEEHLHRWVNFYLNVHRTGDEEHIEKLADPDMRIEVGDKELHGRERAYEFWRRYLEEARLHDMKIRSVELVGDKIILDTEIHSIVGDKHIRERLEIILTKINGRWMLKSMRVQ” gave a protease stability score of 1.45.
For “LESEEDLREAIRILIEDLRTGDEDSLHNLLDPNVRIDVNGVKLHGMEWVSHTIRHLGVKHTYVINRRIKIQGNKVDIDGEFNLRYDGKEERRRITLHVQKIDGVWVIEEITIR”, the protease stability score was 0.971.
Work on “NDDQKELEHIMKLLSRALETGDEEKLRELFDPHTRIHINGVTRIGWEHMKHHFEDLGLSNFHFHLRVRHFDVQGDKARVEGELVVNFNGKETSHDVEWRLEKVNGRWIVKSIIVG” yielded a protease stability score of 2.27.
For “NDEEQVAHKFFEKLMHALLTGDEERLKELHDPDVRVDYGNFKLVGREKMVEFWHRFLEEIRLRNTHIETYHIFDGRLEIHSRIHIEVDGKIRIMEVYLEVRKIDGKWRLTHVEFR”, the protease stability score was 1.68.
For “NDIEQIVREVLELIYHAIATGDWEHIYKNADPNVKYEQGDKEFHGREILSEMIVHIRLRDLELNRLHIVGDKVHIHGHFHMDINGRERLVKTEYIIRKVDGQWRLESLIIR”, the protease stability score was 1.23.
Sequence “NDLEERTKKAAEELREMHKTGDEELWLKNMDPNVRLEIIIGDKLLIFHGREKWREWFHKYKNARHEDNDEHVQGDKTRINVHIVFNGRRVDVEITLRVIDGRVHSEHINII” has a protease stability score of 1.45.
